By Kd is commonly meant the constant that tells how readily two partners part at equilibrium. The term stoichiometry N denotes a count of units in the complex or per binding partner.

Experiment [1] concerns the target T1, Pf-CD1 (Pyrococcus furiosus, UniProt Q8TZL6, DEL/LAST/OF/RESIDUES).
T1 construct: gene PF1974; C-terminal deletion (last 22 residues of Pf-Cpn removed); expressed in E. coli BL21(DE3) from pET33b; homo-hexadecamer (two octameric rings)
T1 sequence (Q8TZL6 1-527): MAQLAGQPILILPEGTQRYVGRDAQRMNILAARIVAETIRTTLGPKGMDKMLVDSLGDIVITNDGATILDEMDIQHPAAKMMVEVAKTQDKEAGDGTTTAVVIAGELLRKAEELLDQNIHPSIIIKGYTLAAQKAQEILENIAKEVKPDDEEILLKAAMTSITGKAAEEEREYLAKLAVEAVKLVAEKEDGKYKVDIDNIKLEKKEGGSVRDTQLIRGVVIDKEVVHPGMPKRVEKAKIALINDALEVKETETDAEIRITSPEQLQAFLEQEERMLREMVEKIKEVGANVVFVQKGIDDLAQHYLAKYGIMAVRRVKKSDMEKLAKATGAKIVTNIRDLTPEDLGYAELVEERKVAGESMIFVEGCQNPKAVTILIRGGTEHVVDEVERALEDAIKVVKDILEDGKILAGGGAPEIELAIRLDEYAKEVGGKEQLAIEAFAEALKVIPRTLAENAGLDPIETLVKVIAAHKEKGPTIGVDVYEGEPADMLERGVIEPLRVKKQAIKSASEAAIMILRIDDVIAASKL
In words: isothermal titration calorimetry, one set of sites model. The experiment is classed as binding. The source says:
(§1) isothermal titration calorimetry, one set of sites model on Pf-CD1

The target of experiment [2] is T2, Pf-CD1 (Pyrococcus furiosus, UniProt Q8TZL6, I138R).
T2 construct: gene PF1974; C-terminal deletion (last 22 residues of Pf-Cpn removed); expressed in E. coli BL21(DE3) from pET33b; homo-hexadecamer (two octameric rings)
The description is as above. Type of experiment: binding.
Text: as §1

Experiment [3] deals with T3, Pf-CD1 (Pyrococcus furiosus, UniProt Q8TZL6, I138H).
T3 construct: gene PF1974; C-terminal deletion (last 22 residues of Pf-Cpn removed); expressed in E. coli BL21(DE3) from pET33b; homo-hexadecamer (two octameric rings)
The experiment is described as above. Type of experiment: binding.
Text: as §1

Experiment [4] has as its target Pf-CD1 Ile138Arg (Pyrococcus furiosus). Nature of the experiment: ITC; dilution experiment, 18 successive injections, 25 °C; fit to a two-state hexadecamer-monomer equilibrium (hexadecamer to monomers); parameters per subunit.
In experiment [5] the target is Pf-CD1 Ile138His (Pyrococcus furiosus). The experiment is described as above.
Experiment [6] has as its target Pf-CD1, Pyrococcus furiosus chaperonin subunit (Pf-Cpn) with the last 22 amino acids deleted (Pyrococcus furiosus). The experiment is described as above.

With `Nc1ncnc2c1ncn2[C@@H]1O[C@H](COP(=O)(O)OP(=O)(O)OP(=O)(O)O)[C@@H](O)[C@H]1O` [ATP], the Kd in experiment [1] amounted to 320 ± 50 nM; in experiment [2] it was 200 ± 10 nM; in experiment [3], 300 ± 20 nM.
In experiment [4], Pf-CD1 Ile138Arg (domain or fragment) came in with a Kd of 100 nM, a dH of dissociation (∆Hd) of -49 kcal/mol and a stoichiometry N of 16.
In experiment [5], Pf-CD1 Ile138His (domain or fragment) gave a Kd of 430 nM, a dH of dissociation (∆Hd) of -250 kcal/mol and a stoichiometry N of 16.
Consider “Pf-CD1, Pyrococcus furiosus chaperonin subunit (Pf-Cpn) with the last 22 amino acids deleted (domain or fragment)”, for which, in experiment [6], the dissociation constant (Kd) worked out at 310 nM, the dH of dissociation (∆Hd) was -350 kcal/mol and the stoichiometry N was 16.
